Assay results as given in PMC2390755.

Molecular target: TAP-tagged ISWI (D. melanogaster) (UniProt Q24368)
Test: pull-down; tandem affinity purification of TAP-tagged ISWI from larval nuclear extracts (IPP150 buffer): IgG agarose, TEV cleavage, calmodulin resin, SDS elution; Western blot for ISWI, Sin3A, Rpd3; untagged extracts as control

Sequence of UniProt Q24368 (Q24368 whole entry): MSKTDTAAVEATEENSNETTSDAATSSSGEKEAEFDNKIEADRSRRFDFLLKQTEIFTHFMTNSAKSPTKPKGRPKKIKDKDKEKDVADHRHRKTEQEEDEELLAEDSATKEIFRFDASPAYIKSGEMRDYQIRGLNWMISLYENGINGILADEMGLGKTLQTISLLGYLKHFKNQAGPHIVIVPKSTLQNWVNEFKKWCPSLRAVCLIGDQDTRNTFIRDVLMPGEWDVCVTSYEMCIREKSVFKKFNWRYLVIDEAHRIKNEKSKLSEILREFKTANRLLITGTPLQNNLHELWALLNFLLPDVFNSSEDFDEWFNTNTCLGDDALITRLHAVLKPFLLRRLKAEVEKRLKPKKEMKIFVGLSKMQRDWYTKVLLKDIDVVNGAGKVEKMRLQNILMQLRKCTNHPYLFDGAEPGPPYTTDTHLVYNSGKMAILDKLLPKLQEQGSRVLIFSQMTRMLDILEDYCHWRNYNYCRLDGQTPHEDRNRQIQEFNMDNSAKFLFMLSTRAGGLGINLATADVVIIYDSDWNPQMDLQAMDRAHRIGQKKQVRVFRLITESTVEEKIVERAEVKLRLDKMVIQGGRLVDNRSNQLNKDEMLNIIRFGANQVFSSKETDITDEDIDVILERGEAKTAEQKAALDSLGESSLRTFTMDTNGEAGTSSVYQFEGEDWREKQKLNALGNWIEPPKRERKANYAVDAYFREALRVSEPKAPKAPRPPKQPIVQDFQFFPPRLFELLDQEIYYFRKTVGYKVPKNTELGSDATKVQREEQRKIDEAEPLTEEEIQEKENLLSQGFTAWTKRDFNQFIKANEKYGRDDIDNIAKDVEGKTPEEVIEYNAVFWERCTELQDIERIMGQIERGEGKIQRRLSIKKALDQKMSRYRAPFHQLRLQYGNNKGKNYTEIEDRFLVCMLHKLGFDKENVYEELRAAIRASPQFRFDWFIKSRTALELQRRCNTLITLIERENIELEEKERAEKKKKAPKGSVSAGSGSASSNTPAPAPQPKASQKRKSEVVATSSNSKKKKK

Sin3A (natural protein) showed a percent of the total protein in larval nuclear extract associated with ISWI (densitometry) of 15%.
